According to article PMC9450138 (Redox Biology, 2022):

Molecular target: T1, Alexa Fluor 546 labelled PRDX1 (UniProt Q06830 1-199, Alexa Fluor 546 label (site not stated))
T1 sequence (looked up): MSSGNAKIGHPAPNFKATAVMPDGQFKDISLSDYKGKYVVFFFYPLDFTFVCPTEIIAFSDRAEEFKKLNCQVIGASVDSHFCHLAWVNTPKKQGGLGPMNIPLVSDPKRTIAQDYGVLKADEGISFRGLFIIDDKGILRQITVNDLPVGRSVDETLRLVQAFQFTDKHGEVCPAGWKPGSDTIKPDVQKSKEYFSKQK
Test: other fluorescence titration

B1: RAD51 labelled with the QSY 35 quencher (natural protein, UniProt Q06609 1-339, looked up)
chain: MAMQMQLEANADTSVEEESFGPQPISRLEQCGINANDVKKLEEAGFHTVEAVAYAPKKELINIKGISEAKADKILAEAAKLVPMGFTTATEFHQRRSEIIQITTGSKELDKLLQGGIETGSITEMFGEFRTGKTQICHTLAVTCQLPIDRGGGEGKAMYIDTEGTFRPERLLAVAERYGLSGSDVLDNVAYARAFNTDHQTQLLYQASAMMVESRYALLIVDSATALYRTDYSGRGELSARQMHLARFLRMLLRLADEFGVAVVITNQVVAQVDGAAMFAADPKKPIGGNIIAHASTTRLYLRKGRGETRICKIYDSPCLPEAEAMFAINADGVGDAKD
modifications: QSY 35 quencher label (site not stated)
apparent KD (first of two): 140 nM
apparent KD (second of two): 610 nM
